From patent US8765126B2, “Methods of treating complications and disorders associated with G-CSF administration” (priority 2011, dated 2014)
Entries after “also recorded” stand apart in the source; their conditions may differ. Read-outs that look alike come from different tables or passages of the source.

Tests used:
[1] = test system: membrane MPO; test: Flow cytometry of cell surface (membrane) MPO expression on myeloid cells; assay type: cell-based, human
Procedure: (§1) Flow cytometry. Cell surface expression of E-selectin ligands and MPO was determined by indirect single-color immunostaining with HECA-452 and anti-MPO (2C7) mAbs, respectively. Cells were incubated with primary antibodies and their matched isotype controls in PBS with 2% FBS for 20 min, on ice. After successive washes with PBS and 2% FBS cells were stained with FITC-conjugated secondary antibody for HECA-452 and PE-conjugated secondary antibody for MPO. Stained cells were then washed, resuspended in PBS, and analyzed using the Cytomics FC 500 MPL flow cytometer (Beckman Coulter, Miami, Fla.).
(§2) In vitro G-CSF treatment. Myeloid cells (10^6 cells/ml), isolated from different sources were cultured with RPMI 1640 medium (Mediatech, Inc, Manassas, Va.) with 10% FBS, 1% pen/strep and 10 ng/ml recombinant human G-CSF (Neupogen) from Amgen Mfg. Ltd., CA. Cells were maintained in culture for 72 h, at 37° C. and G-CSF aliquots were added after each 24 h period.
(§3) Neuraminidase and DMJ treatment. Cells were isolated from the buffy coat of bone marrow aspirates after centrifugal sedimentation and red blood cell lysis. […] After extensive washes, cells were divided in equal numbers and cultured in RPMI 1640 medium, for 48 h, with or without G-CSF treatment. In parallel, a subset of cells cultured with G-CSF was treated with 1 mM deoxymannojirimycin (DMJ). The effect(s) of G-CSF and DMJ were assessed by flow cytometry analysis of surface expression of HECA-452 determinants and of MPO.

[2] = test system: HECA-452-reactive glycans; test: Flow cytometry of cell surface HECA-452-reactive sialofucosylated glycans on myeloid cells; assay type: cell-based, human
Procedure: as §1, §2, §3

[3] = test system: surface MPO; test: Detection of membrane MPO activity (surface biotinylation, streptavidin beads, OPD substrate); assay type: cell-based, human
Procedure: Detection of membrane MPO activity. Aliquots of NL and ML were surface biotinylated, lyesed and membrane proteins were precipitated with streptavidin-conjugated agarose beads. The beads were incubated with a chromogenic peroxidase substrate, o-Phenylenediamine dihydrochloride (OPD) (Sigma) and the activity of surface MPO was monitored spectrophotometrically.

[4] = test system: TNF-α-stimulated HUVEC
[5] = test system: mice with surgically-induced myocardial infarct; test: Surgically induced myocardial infarct, echocardiographic ejection fraction; assay type: in vivo; conditions: 7 days post-MI, mice injected with neuraminidase-treated ML vs untreated ML
Source text: Adult RAG-2/JAK-3 SCID mice were maintained on a standard mouse chow diet and water ad libitum, and housed in a temperature-controlled environment under an alternating 12-hour light/dark cycle. All animal handling procedures adhered strictly to the approved guidelines of the Institutional Animal Care and Use Committee. Mice paired by weight and sex were distributed in two groups: in one group experimental MI was induced by permanent left anterior descending artery (LAD) ligation, as previously described^67 and another group that underwent open thoracotomy without coronary ligation (sham operated). Within five hours following the surgery, mice from each group were injected via jugular vein either with PBS or different cell types: NL, ML or sialidase-treated ML (4×10^6 cells/mouse). The surgeon who performed the MI procedure and the jugular vein perfusions was blinded to the type of cells/[…] injected in each animal. Echocardiography was performed on all mice before surgery (baseline), at 3 days and 7 days following surgery using an 18 to 38 MHz linear-array transducer with a digital ultrasound system (Vevo 2100 Imaging System, VisualSonics, Toronto, Canada). Standard parasternal long- and short-axis views were obtained during each echocardiographic examination and image measurements were performed offline by an investigator blinded to animal groups and the cell types/PBS injections.

[6] = patients receiving G-CSF; cited from earlier work
[7] = test system: MPO-EL; test: MPO immunoprecipitation and western blot with E-selectin-Ig chimera / anti-MPO 3D3; assay type: cell-based, human
Procedure: G-CSF induces MPO-EL expression in myeloid cells in vitro. To directly assess whether G-CSF stimulates expression of MPO-EL, freshly obtained BM, NL and ML were placed in culture and treated for 48 hours with human G-CSF at 10 ng/ml, a dose reflecting physiologic concentrations of G-CSF following in vivo administration^21,37. MPO was immunoprecipitated from equivalent cell numbers of BM, NL and ML, then resolved on SDS-PAGE and blotted with an anti-MPO Ab which predominantly recognizes the heavy chain (clone 3D3) (FIG. 4d); blots were then stripped and stained with E-Ig (FIG. 4e).
Immunoprecipitations, SDS-PAGE and Western Blotting. Leukocytes were lysed in Buffer A (0.5 mM Tris, pH=8, 150 mM NaCl, 20 μg/ml PMSF, 0.02% sodium azide) supplemented with 1% Triton (Sigma-Aldrich, St. Louis, Mo.) and protease inhibitor cocktail (Roche Diagnostics GmbH, Mannheim, Germany). Cell lysates were precleared with rProtein G Agarose beads (Invitrogen, Carlsbad, Calif.). Immunoprecipitations were performed at 4° C. for 16 h, by incubating the precleared lysates with 2 μg antibody and a fresh batch of agarose beads blocked in advance with 1 mg/ml bovine serum albumin (Sigma-Aldrich, St. Louis, Mo.). After extensive washes, the beads were boiled with sample buffer and the released antigens or cell lysates were resolved on 7.5% Tris-HCl SDS-PAGE (Criterion™ Precast Gel, Bio-Rad Laboratories, Hercules, Calif.). In western blot experiments separated proteins were transferred to Sequi-Blot™PVDF Membrane (Bio-Rad Laboratories, Hercules, Calif.) which was blocked for 2 h with a solution of 5% Non-Fat Milk (LabScientific, Livingston, N.J.). Proteins were detected with E-selectin-Ig chimera or with anti-MPO mAb: clone 2C7 (Abcam) and clone 3D3 (a generous gift from Carrie Rice at Maine Biotechnology Services, ME). Secondary antibodies goat anti-human IgG and goat anti-mouse IgG, HRP-conjugated were detected with Lumi-Light Western Blotting Substrate, (Roche Diagnostics GmbH, Mannheim, Germany).
In vitro G-CSF treatment. […]

Question: Which “G-CSF-induced MPO expression” value ([1]; NA-treated BM cells, G-CSF in presence of 1 mM DMJ, 48 h) does the source give for OC[C@H]1NC[C@@H](O)[C@@H](O)[C@@H]1O [DMJ, deoxymannojirimycin, reference compound] here?
Answer: significantly attenuated

Question: What about the “G-CSF-induced expression of HECA-452-reactive glycans” value ([2]; NA-treated BM cells cultured 48 h with G-CSF in presence of 1 mM DMJ) of the same molecule?
Answer: markedly diminished

Question: And the “induction of surface enzymatic activity” value ([3]; DMJ added to G-CSF-treated NL)?
Answer: prevented induction of surface enzymatic activity

Question: And the G-CSF-induced angiotoxicity ([4]; NL treated with G-CSF and DMJ together)?
Answer: prevented G-CSF-induced angiotoxicity

Question: With “sialidase: Vibrio Cholerae neuraminidase used to cleave terminal sialic acid from sLex [reference compound]” as the molecule, how does the ejection fraction [5] read?
Answer: improved ejection fraction

Question: What about the MPO expression ([1]; BM cells treated with NA, cultured 48 h) of the same molecule?
Answer: did not induce MPO expression

Question: And the endothelial cell death ([4]; TNF-α-stimulated HUVEC in absence of leukocytes (baseline))?
Answer: no effect

Question: And the endothelial cell death ([4]; co-culture with sialidase-treated ML compared to untreated ML)?
Answer: significantly decreased

B1: Granulocyte colony-stimulating factor (protein, chains of the INN, looked up)
chain: MTPLGPASSLPQSFLLKCLEQVRKIQGDGAALQEKLCATYKLCHPEELVLLGHSLGIPWAPLSSCPSQALQLAGCLSQLHSGLFLYQGLLQALEGISPELGPTLDTLQLDVADFATTIWQQMEELGMAPALQPTQGAMPAFASAFQRRAGGVLVASHLQSFLEVSYRVLRHLAQP
Question: With B1 as the molecule, how does the MPO membrane expression ([1]; ML treated ex vivo with G-CSF) read?
Answer: only modestly increased

Question: What about the “expression of surface MPO” value ([1]; NL and BM cells treated ex vivo with G-CSF) of the same molecule?
Answer: dramatically increased

Question: What about the “cutaneous leukocytoclastic vasculitis, patients affected” value [6] of the same molecule?
Answer: ≤ 6%

Question: What about the MPO-EL expression ([7]; BM and NL, 10 ng/ml G-CSF, 48 hours) of the same molecule?
Answer: markedly induces

Question: And the MPO quantity ([7]; BM and NL, 10 ng/ml G-CSF, 48 hours, anti-MPO 3D3 blot)?
Answer: without significant increase

Question: And the MPO-EL expression ([7]; ML, ex vivo exposure to G-CSF)?
Answer: did not further increase

Question: What about the HECA452-reactive glycans ([2]; ML treated ex vivo with G-CSF) of the same molecule?
Answer: only modest increases

Question: What about the “expression of HECA-452 determinants” value ([2]; NA-treated BM cells incubated with G-CSF vs without G-CSF, 48 h) of the same molecule?
Answer: marked increased expression

Question: What about the HECA452-reactive glycans ([2]; NL and BM treated ex vivo with G-CSF) of the same molecule?
Answer: significant increase

Question: And the “cell surface MPO enzymatic (peroxidase) activity” value ([3]; NL cultured with 10 ng/ml G-CSF for 48 hours)?
Answer: induced surface peroxidase activity

Question: What about the angiotoxicity ([4]; G-CSF-treated ML compared to untreated ML) of the same molecule?
Answer: no significant increase in angiotoxicity

Question: And the “endothelial cell death (cytotoxic effect)” value ([4]; G-CSF-treated NL or BM compared to untreated NL or BM cells)?
Answer: enhanced cytotoxic effect; also recorded: markedly increased
